Source: patent US20100189657A1, “INTRAMOLECULARLY QUENCHED FLUOROCHROME CONJUGATES AND METHODS OF USE” (THE GENERAL HOSPITAL CORPORATION, priority 2006, published 2010)
Entries after “also recorded” stand apart in the source; their conditions may differ.

assay: Aqueous solubility of the probes; format: physicochemical; conditions: aqueous solutions
Procedure: The absorption spectra of equimolar solutions of the probes based on the absorption peak of the free dye, CyTE-777 are shown in FIG. 4. […] The absorption band due to dye aggregation becomes slightly weaker with increasing PEG chain length. […] To determine if the aggregated fluorophores lead to quenching, fluorescence spectra of all the three probes were measured and compared to the fluorescence spectrum of an equimolar solution of CyTE-777 (FIG. 5).
These cysteine proteases are known to be important in biological processes and have similar substrate selectivity. […] The Leu-Arg dipeptide cathepsin S substrate was previously reported to be partially but not completely selective to cathepsin S. The selectivity observed for cathepsin S in the present study is higher than what was expected from the literature reports.

Row | SMILES | aqueous solubility
1 | CC(C)C[C@H](NC(=O)CCNC(=O)CCOCCOCCOCCOCCNC(=O)CCSC1=C(/C=C/C2=[N+](CCCCS(=O)(=O)O)c3ccccc3C2(C)C)CCC/C1=C\C=C1\N(CCCCS(=O)(=O)O)c2ccccc2C1(C)C)C(=O)N[C@@H](CCCNC(=N)N)C(=O)NCCC(=O)NCCCC[C@H](NC(=O)CCNC(=O)[C@H](CCCNC(=N)N)NC(=O)[C@H](CC(C)C)NC(=O)CCNC(=O)CCOCCOCCOCCOCCNC(=O)CCSC1=C(/C=C/C2=[N+](CCCCS(=O)(=O)O)c3ccccc3C2(C)C)CCC/C1=C\C=C1\N(CCCCS(=O)(=O)O)c2ccccc2C1(C)C)C(=O)NCCCC[C@H](NC(=O)[C@H](CCCCNC(=O)CCNC(=O)[C@H](CCCNC(=N)N)NC(=O)[C@H](CC(C)C)NC(=O)CCNC(=O)CCOCCOCCOCCOCCNC(=O)CCSC1=C(/C=C/C2=[N+](CCCCS(=O)(=O)O)c3ccccc3C2(C)C)CCC/C1=C\C=C1\N(CCCCS(=O)(=O)O)c2ccccc2C1(C)C)NC(=O)CCNC(=O)[C@H](CCCNC(=N)N)NC(=O)[C@H](CC(C)C)NC(=O)CCNC(=O)CCOCCOCCOCCOCCNC(=O)CCSC1=C(/C=C/C2=[N+](CCCCS(=O)(=O)O)c3ccccc3C2(C)C)CCC/C1=C\C=C1\N(CCCCS(=O)(=O)O)c2ccccc2C1(C)C)C(=O)NCCC(=O)O [CyPEG-1] | practically insoluble
2 | CC(C)C[C@H](NC(=O)CCNC(=O)CCOCCOCCOCCOCCNC(=O)CCOCCOCCOCCOCCNC(=O)CCSC1=C(/C=C/C2=[N+](CCCCS(=O)(=O)O)c3ccccc3C2(C)C)CCC/C1=C\C=C1\N(CCCCS(=O)(=O)O)c2ccccc2C1(C)C)C(=O)N[C@@H](CCCNC(=N)N)C(=O)NCCC(=O)NCCCC[C@H](NC(=O)CCNC(=O)[C@H](CCCNC(=N)N)NC(=O)[C@H](CC(C)C)NC(=O)CCNC(=O)CCOCCOCCOCCOCCNC(=O)CCOCCOCCOCCOCCNC(=O)CCSC1=C(/C=C/C2=[N+](CCCCS(=O)(=O)O)c3ccccc3C2(C)C)CCC/C1=C\C=C1\N(CCCCS(=O)(=O)O)c2ccccc2C1(C)C)C(=O)NCCCC[C@H](NC(=O)[C@H](CCCCNC(=O)CCNC(=O)[C@H](CCCNC(=N)N)NC(=O)[C@H](CC(C)C)NC(=O)CCNC(=O)CCOCCOCCOCCOCCNC(=O)CCOCCOCCOCCOCCNC(=O)CCSC1=C(/C=C/C2=[N+](CCCCS(=O)(=O)O)c3ccccc3C2(C)C)CCC/C1=C\C=C1\N(CCCCS(=O)(=O)O)c2ccccc2C1(C)C)NC(=O)CCNC(=O)[C@H](CCCNC(=N)N)NC(=O)[C@H](CC(C)C)NC(=O)CCNC(=O)CCOCCOCCOCCOCCNC(=O)CCOCCOCCOCCOCCNC(=O)CCSC1=C(/C=C/C2=[N+](CCCCS(=O)(=O)O)c3ccccc3C2(C)C)CCC/C1=C\C=C1\N(CCCCS(=O)(=O)O)c2ccccc2C1(C)C)C(=O)NCCC(=O)O [CyPEG-2] | satisfactory aqueous solubility; also recorded: much higher aqueous solubility
3 | CC(C)C[C@H](NC(=O)CCNC(=O)CCOCCOCCOCCOCCNC(=O)CCOCCOCCOCCOCCNC(=O)CCOCCOCCOCCOCCNC(=O)CCSC1=C(/C=C/C2=[N+](CCCCS(=O)(=O)O)c3ccccc3C2(C)C)CCC/C1=C\C=C1\N(CCCCS(=O)(=O)O)c2ccccc2C1(C)C)C(=O)N[C@@H](CCCNC(=N)N)C(=O)NCCC(=O)NCCCC[C@H](NC(=O)CCNC(=O)[C@H](CCCNC(=N)N)NC(=O)[C@H](CC(C)C)NC(=O)CCNC(=O)CCOCCOCCOCCOCCNC(=O)CCOCCOCCOCCOCCNC(=O)CCOCCOCCOCCOCCNC(=O)CCSC1=C(/C=C/C2=[N+](CCCCS(=O)(=O)O)c3ccccc3C2(C)C)CCC/C1=C\C=C1\N(CCCCS(=O)(=O)O)c2ccccc2C1(C)C)C(=O)NCCCC[C@H](NC(=O)[C@H](CCCCNC(=O)CCNC(=O)[C@H](CCCNC(=N)N)NC(=O)[C@H](CC(C)C)NC(=O)CCNC(=O)CCOCCOCCOCCOCCNC(=O)CCOCCOCCOCCOCCNC(=O)CCOCCOCCOCCOCCNC(=O)CCSC1=C(/C=C/C2=[N+](CCCCS(=O)(=O)O)c3ccccc3C2(C)C)CCC/C1=C\C=C1\N(CCCCS(=O)(=O)O)c2ccccc2C1(C)C)NC(=O)CCNC(=O)[C@H](CCCNC(=N)N)NC(=O)[C@H](CC(C)C)NC(=O)CCNC(=O)CCOCCOCCOCCOCCNC(=O)CCOCCOCCOCCOCCNC(=O)CCOCCOCCOCCOCCNC(=O)CCSC1=C(/C=C/C2=[N+](CCCCS(=O)(=O)O)c3ccccc3C2(C)C)CCC/C1=C\C=C1\N(CCCCS(=O)(=O)O)c2ccccc2C1(C)C)C(=O)NCCC(=O)O [CyPEG-3] | satisfactory aqueous solubility
